In patent US20250161472A1 (BIOATLA, published 2025):
Positions count from the first letter of the chain named. In names and notes the source's numbering stands.

B1: HC-N106E (antibody, V domains shown)
VH: EVQLQQSGPELVKPGASVKISCKTSGYTFTEYTMHWMKQSHRKSLEWIGGINTNNGGTGYNQKFKGKATLTVDKSSSTAYMELRSLTSEDSAVYFCARGSLYSYGESYFDYWGQGTLVTVSS
VL: QIVLTQSPAIMSASPGEKVTITCSATSSVSYMHWFQQKPGTSPKLWIYGTSNLASGVPARFSGSGSGTSYSLTISRMEAEDAATYYCQQRSSYPFTFGQGTKVEIK
B2: LC-F097D (antibody, V domains shown)
VH: B1 VH with E106N
VL: B1 VL with F97D
B3: BAP048 conjugated to monomethyl auristatin E (BAP048 ADC) (other)
VL: AIQLTQSPSSLSASVGDRVTITCSATSSVSYMHWYLQKPGQSPQLLIYGTSNLASGVPDRFSGSGSGTDFTLKISRVEAEDVGVYYCQQRSSYPFTFGQGTKVEIK
VH: EVQLVQSGAEVKKPGESLRISCKGSGYTFTEYTMHWVRQAPGQGLEWMGGINTNNGGTGYNQKFKGRVTISADKSISTAYLQWSSLKASDTAMYYCAHGSLYSYGNSYFDYWGQGTLVTVSS
modifications: MMAE drug conjugate (site, chain and linker not stated in Example 5)
B4: BAP048.7-humC02D09-CAB )#3947) (antibody, V domains shown)
VH: B3 VH with E1Q, E16A, L18V, R19K, I20V, G24A, P41R, G44R, M48I
VL: B3 VL with L36Q, S42A, Q44R
notes: The sheet says 'mAb'; also called BAP048.7-C02D09; ROR2-CAB1-ADC (as conjugate)
B5: BAP048.7-humA03F01-CAB (#3948) (antibody, V domains shown)
VH: B3 VH with V37I, A40S, G42S, Q43R, M48L
VL: B3 VL
notes: The sheet says 'mAb'; also called BAP048.7-humA03F01 (#3948); BAP048.7-A03F01
B6: LC-Q089E (antibody, V domains shown)
VH: B1 VH with E106N
VL: B1 VL with Q89E
notes: CPE single point mutant of parent VL 48.6-LC-WT
B7: LC-R090H (antibody, V domains shown)
VH: B1 VH with E106N
VL: B1 VL with R90H
notes: as for B6
B8: LC-S030D (antibody, V domains shown)
VH: B1 VH with E106N
VL: B1 VL with S30D
notes: as for B6
B9: LC-S092D (antibody, V domains shown)
VH: B1 VH with E106N
VL: B1 VL with S92D
notes: as for B6
B10: LC-S092V (antibody, V domains shown)
VH: B1 VH with E106N
VL: B1 VL with S92V
notes: as for B6
B11: LC-T096D (antibody, V domains shown)
VH: B1 VH with E106N
VL: B1 VL with T96D
notes: as for B6
B12: LC-Y031C (antibody, V domains shown)
VH: B1 VH with E106N
VL: B1 VL with Y31C
notes: as for B6
B13: LC-Y031D (antibody, V domains shown)
VH: B1 VH with E106N
VL: B1 VL with Y31D
notes: as for B6

Key:
[1] = target: human ROR2 (receptor tyrosine kinase-like orphan receptor 2) (human) (UniProt Q01974); assay: affinity ELISA on human ROR2, signal at pH 6.0 over pH 7.4
Chain of human ROR2 (receptor tyrosine kinase-like orphan receptor 2) (human) (Q01974 34-403 limits assumed): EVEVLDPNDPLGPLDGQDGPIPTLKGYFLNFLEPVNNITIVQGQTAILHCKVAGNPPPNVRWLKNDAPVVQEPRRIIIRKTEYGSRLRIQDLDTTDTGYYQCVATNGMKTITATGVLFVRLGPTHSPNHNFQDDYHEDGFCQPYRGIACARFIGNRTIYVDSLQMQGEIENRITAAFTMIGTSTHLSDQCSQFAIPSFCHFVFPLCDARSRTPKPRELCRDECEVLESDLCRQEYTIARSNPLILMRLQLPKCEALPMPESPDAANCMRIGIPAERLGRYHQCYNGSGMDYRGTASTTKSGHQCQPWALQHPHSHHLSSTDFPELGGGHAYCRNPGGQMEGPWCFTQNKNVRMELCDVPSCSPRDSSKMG

[2] = target: human ROR2 (receptor tyrosine kinase-like orphan receptor 2) (human) (UniProt Q01974); assay: affinity ELISA on human ROR2, pH 6.0
[3] = target: human ROR2 (receptor tyrosine kinase-like orphan receptor 2) (human) (UniProt Q01974); assay: affinity ELISA on human ROR2, pH 7.4
[4] = target: human ROR2 expressed on the surface of HEK293 cells (human, UniProt Q01974 34-943); assay: cell-based or functional assay
Chain of human ROR2 expressed on the surface of HEK293 cells (Q01974 34-943): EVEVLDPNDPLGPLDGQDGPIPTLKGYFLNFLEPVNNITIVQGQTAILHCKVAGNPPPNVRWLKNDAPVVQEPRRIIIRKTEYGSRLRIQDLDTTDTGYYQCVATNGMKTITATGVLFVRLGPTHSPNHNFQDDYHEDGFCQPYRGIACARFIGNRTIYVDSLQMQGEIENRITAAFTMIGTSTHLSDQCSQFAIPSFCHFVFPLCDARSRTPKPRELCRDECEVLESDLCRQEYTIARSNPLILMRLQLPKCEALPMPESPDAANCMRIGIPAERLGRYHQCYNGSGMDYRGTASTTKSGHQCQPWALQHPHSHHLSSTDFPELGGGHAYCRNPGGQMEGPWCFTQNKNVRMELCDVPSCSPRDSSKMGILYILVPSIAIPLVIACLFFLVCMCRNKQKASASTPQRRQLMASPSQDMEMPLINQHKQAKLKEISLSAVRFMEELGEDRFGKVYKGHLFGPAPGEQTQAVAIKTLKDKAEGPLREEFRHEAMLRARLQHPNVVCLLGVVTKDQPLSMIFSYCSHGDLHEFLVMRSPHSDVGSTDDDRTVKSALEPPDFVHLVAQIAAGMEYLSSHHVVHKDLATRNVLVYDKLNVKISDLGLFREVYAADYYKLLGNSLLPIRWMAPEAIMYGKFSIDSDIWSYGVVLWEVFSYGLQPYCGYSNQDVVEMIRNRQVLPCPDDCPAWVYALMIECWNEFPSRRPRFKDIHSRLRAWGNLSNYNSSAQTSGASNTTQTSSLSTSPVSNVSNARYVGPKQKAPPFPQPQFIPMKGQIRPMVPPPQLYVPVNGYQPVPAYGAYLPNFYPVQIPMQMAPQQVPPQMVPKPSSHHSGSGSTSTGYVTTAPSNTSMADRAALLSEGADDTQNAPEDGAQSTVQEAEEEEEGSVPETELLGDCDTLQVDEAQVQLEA

[5] = target: T1, human ROR2 (receptor tyrosine kinase-like orphan receptor 2) (human, UniProt Q01974 34-403, limits assumed); assay: plate binding assay (ELISA per Example 1) on ROR2 at pH 6.0 and pH 7.4, 40 ng mAb, untreated and after 1 h at 60°C
T1 construct: Antigen of the ELISA, SPR and pH titration assays; also called hROR2
T1 sequence (Q01974 34-403 limits assumed): as the sequence (Q01974 34-403 limits assumed) above

[6] = target: T1, human ROR2 (receptor tyrosine …); assay: affinity ELISA on human ROR2, pH 6.0; parameters: unit not given here
[7] = target: T1, human ROR2 (receptor tyrosine …); assay: affinity ELISA on human ROR2, pH 7.4; parameters: unit not given here

Binder	Affinity ELISA, pH 6.0 [6]	Affinity ELISA, pH 7.4 [7]	also measured
B1			ratio, pH 6.0/7.4 [1]: 1.95; Affinity ELISA, pH 6.0 [2]: 0.224; Affinity ELISA, pH 7.4 [3]: 0.115
B2			ratio, pH 6.0/7.4 [1]: 1.77; Affinity ELISA, pH 6.0 [2]: 0.19; Affinity ELISA, pH 7.4 [3]: 0.107
B3			cell killing, difference of effective concentration between pH 7.4 and pH 6.0 [4]: ~10 fold
B4			binding result [5]: binds
B5			binding result [5]: binds
B6	0.438	0.251	
B7	0.56	0.256	
B8	0.733	0.252	
B9	1.13	1.12	
B10	1.23	1.18	
B11	0.755	0.474	
B12	1.34	0.7	
B13	0.911	0.405	
